From the supplement of paper PMC9170038 come the findings set out here.

For the data set, the system named is MS2 coat protein. The data set is described as follows: apparent KD of MS2 coat protein; designed switch direction (-1 OFF switch, 1 ON switch): 1; higher = weaker reporter binding. Summed up: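 Stalled E. coli RNA polymerase transcribed designed RNA switches on Illumina chips, which were then titrated with SNAP-549-labelled MS2 coat protein, doubling from 0.7 or 1.5 nM to 3 µM. Steps lasted from 0.8–1.5 h at the lowest concentration to 10–20 min at the highest. The apparent KD is each design's median over clusters of curve-fitted normalised fluorescence.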

The mark [1] stands for this setting: input ligand: microRNA oligo, concentration not stated.
Where [2] appears, read: Eterna round: R95, input ligand: FMN 200 uM.
Where [3] appears, read: Eterna round: R95, input ligand: microRNA oligo, concentration not stated.
The mark [4] stands for this setting: Eterna round: R95, input ligand: none.

As for “GCCAUCCAGUGAGGAUAUGGCACCGUUUCGGUGCCAGAAGGCAUGUCAAUUGACAUGAGGAUCACCCAUGUAUUAUGGAUGGCA [JL Fiskers NG1ss - 33 mod 1] (Eterna round: R96, puzzle: Same State NG 1)”, the “apparent KD of MS2 coat protein” value is, setting by setting: (input ligand: FMN 200 uM) 96.2 nM; under setting [1], 423 nM; (input ligand: none) 1110 nM.
As to “GCCGAACAUGAGGAUCACCCAUGUCUGGGUAAUCAAGGAUAUGGGAAGGCUUUGCCAUGACCAGAAGGUGGUUAUC [Zari] (Eterna round: R96, puzzle: Same State 1)”, the “apparent KD of MS2 coat protein” value by setting is: (input ligand: FMN 200 uM) 26.3 nM; under setting [1], 38.9 nM; (input ligand: none) 53.5 nM.
With “GCCGCACAUGAGGAUCACCCAUGUAAUUACAUGGGAGGAUAUCAGUGCUCGAAAGAGCACUGAGAAGGCCUGAGGC [SS1 - Omei A v1] (Eterna round: R96, puzzle: Same State 1)”, the “apparent KD of MS2 coat protein” value (input ligand: FMN 200 uM) is 887 nM, the “apparent KD of MS2 coat protein” value under setting [1] is 42.4 nM and the “apparent KD of MS2 coat protein” value (input ligand: none) was determined as 74.8 nM.
Turning to “GCCGCACAUGAGGAUCACCCAUGUAAUUACAUGGGAGGAUAUCAGUGCUCGAAAGAGCACUGAGAAGGCCUGAGGC [SS1 - Omei A v1] (puzzle: Same State 1)”, the “apparent KD of MS2 coat protein” value runs as follows: under setting [2], 296 nM; under setting [3], 32.2 nM; under setting [4], 28.8 nM.
As to “GCCGCGUUUCGCGCCUACAUGAGGAUCACCCAUGUUUGUAGGCAGGAUAUCGUUUGCUUUGCAAGCGAGAAGGGCUGUUGUGGC [salish99_SSNG3_R04_015] (Eterna round: R96, puzzle: Same State NG 3)”, the “apparent KD of MS2 coat protein” value by setting is: (input ligand: FMN 200 uM) 44.3 nM; under setting [1], 39.2 nM; (input ligand: none) 50.7 nM.
Take “GCGAACUGUGUAGGAUAUUGAGCACUUUUGGAGCAAGAAGGACACCAAGUGCUGACUAUACAUGAGGAUCACCCAUGUUCAGCA [Eternabot solution 22] (Eterna round: R96, puzzle: Same State NG 1)”: under setting [1], the “apparent KD of MS2 coat protein” value is 21.4 nM.
On to “GCGAAGAGGUAAGGAUAUUCAUGGCGGAGACAUGAGGAUCACCCAUGUAGGAGACGAAAUCAAAGGGAGAAGGUACCAGGACGC [AK SSNG2-V2-15] (Eterna round: R96, puzzle: Same State NG 2)”, for which the “apparent KD of MS2 coat protein” value runs as follows: (input ligand: FMN 200 uM) 82.2 nM; under setting [1], 159 nM; (input ligand: none) 160 nM.
On to “GCGAGCGUACUUGCAGACAUGAGGAUCACCCAUGUAACUGGACAGGAUAUGGUACCGUUUCGGUACCAGAAGGGUUCAUAUGUC [JL SSNG3 3.53] (Eterna round: R96, puzzle: Same State NG 3)”, for which the “apparent KD of MS2 coat protein” value (input ligand: FMN 200 uM) came to 67.6 nM, the “apparent KD of MS2 coat protein” value under setting [1] came out at 50.8 nM and the “apparent KD of MS2 coat protein” value (input ligand: none) was found to be 79.4 nM.
In the case of “GCGAGCGUACUUGCAGACAUGAGGAUCACCCAUGUAACUGGACAGGAUAUGGUACCGUUUCGGUACCAGAAGGGUUUACUCAUG [JL SSNG3 3.57] (Eterna round: R96, puzzle: Same State NG 3)”, the “apparent KD of MS2 coat protein” value reads like this: (input ligand: FMN 200 uM) 67.2 nM; under setting [1], 84 nM; (input ligand: none) 69.1 nM.
The corresponding values for “GCGAGCGUACUUGCAGACAUGAGGAUCACCCAUGUAACUGGACAGGAUAUGGUACCGUUUCGGUACCAGAAGGGUUUAUCAUGU [JL SSNG3 3.55] (Eterna round: R96, puzzle: Same State NG 3)” are 167 nM, 140 nM and 193 nM.
The corresponding values for “GCGAGCGUACUUGCUACAUGAGGAUCACCCAUGUUUGAUGGACAGGAUAUGGUACCGUUUCGGUACCAGAAGGGUUCACAUGUA [JL SSNG3 3.79] (Eterna round: R96, puzzle: Same State NG 3)” are 71.4 nM, 268 nM and 214 nM.
Take “GCGGAACGGUGUGACAUGAGGAUCACCCAUGUAACCUCAUGUAAGGAUAUCGGGAAGAAGAAAACCGAGAAGGUACGGUGACGC [AK SSNG3-V2-29] (Eterna round: R96, puzzle: Same State NG 3)”: the “apparent KD of MS2 coat protein” value stood at 399 nM (input ligand: FMN 200 uM), 152 nM under setting [1] and 706 nM (input ligand: none).
The corresponding values for “GCGGAAUGGUGUGACAUGAGGAUCACCCAUGUAACCUCAUGUAAGGAUAUCGGGAAGAAGAAAACCGAGAAGGUACGGUGACGC [AK SSNG3-V2-28] (Eterna round: R96, puzzle: Same State NG 3)” are 197 nM, 145 nM and 165 nM.
With “GCGGAGAGGUAAGGAUAUUCAUGGCAUAGACAUGAGGAUCACCCAUGUAGGAGACGAAUUAGAAGGAAGAAGGUACCGGGACGC [AK SSNG2-V2-18.1] (Eterna round: R96, puzzle: Same State NG 2)”, the “apparent KD of MS2 coat protein” value (input ligand: FMN 200 uM) was found to be 158 nM, the “apparent KD of MS2 coat protein” value under setting [1] was determined as 113 nM and the “apparent KD of MS2 coat protein” value (input ligand: none) was 197 nM.
With “GCUACAUCGAGCGAGGAUAUGCGGCGUAUAACAUGAGGAUCACCCAUGUCCUUCGAAUCGAGUACGCAGAAGGCGCUACGGUAGC [Big Heel] (puzzle: Same State 2)”, the “apparent KD of MS2 coat protein” value under setting [2] was 77.6 nM, the “apparent KD of MS2 coat protein” value under setting [3] worked out at 277 nM and the “apparent KD of MS2 coat protein” value under setting [4] amounted to 551 nM.
Regarding “GCUACAUGAGGAUCACCCAUGUGUGUGUGGGAGUGAGUGGCUUAGGAUAUCUAUGAUUUUAGUUGAGAGAAGGAGGAUUGCUGU [SS-NG3-LRO09] (Eterna round: R96, puzzle: Same State NG 3)”, the “apparent KD of MS2 coat protein” value reads like this: (input ligand: FMN 200 uM) 471 nM; under setting [1], 317 nM; (input ligand: none) 336 nM.
The corresponding values for “GCUACCAUUGAAGCCAACAUGAGGAUCACCCAUGUAUGUUGGCAGGAUAUCGAUUGCAAAGCGAUCGAGAAGGGCUAAGGUAGC [Mat - Same State NG 3 - JL Mod - D86] (Eterna round: R96, puzzle: Same State NG 3)” are 92.2 nM, 62.8 nM and 117 nM.
The corresponding values for “GCUAGAAUAAAUGCUAACAUGAGGAUCACCCAUGUAUGUUGGCAGGAUAUCGUUUGCAAAGCAAACGAGAAGGGCCAUACUAGC [Mat - Same State NG 3 - JL Mod - D26] (Eterna round: R96, puzzle: Same State NG 3)” are 23.1 nM, 26.3 nM and 38.1 nM.
Regarding “GCUAGAAUUAAAGCCAACAUGAGGAUCACCCAUGUAUGUUGGUAGGAUAUCGUUUGCAAAGCAAACGAGAAGGGCUAAUCUAGC [Mat - Same State NG 3 - JL Mod - D64] (Eterna round: R96, puzzle: Same State NG 3)”, the “apparent KD of MS2 coat protein” value reads like this: (input ligand: FMN 200 uM) 87 nM; under setting [1], 48.2 nM; (input ligand: none) 80.2 nM.
In the case of “GCUAGGAAUUAAGCCAACAUGAGGAUCACCCAUGUAUGUUGGUAGGAUAUCGUUUGCAAAGCAAACGAGAAGGGCUAACCUAGC [Mat - Same State NG 3 - JL Mod - D72] (Eterna round: R96, puzzle: Same State NG 3)”, the “apparent KD of MS2 coat protein” value is, setting by setting: (input ligand: FMN 200 uM) 80.9 nM; under setting [1], 55.8 nM; (input ligand: none) 85.3 nM.
In the case of “GCUAGUAAAAUUGUCAACAUGAGGAUCACCCAUGUAUGUUGGCAGGAUAUCGUUUGCAAAGCAAACGAGAAGGGCUAAACUAGC [Mat - Same State NG 3 - JL Mod - D12] (Eterna round: R96, puzzle: Same State NG 3)”, the “apparent KD of MS2 coat protein” value stood at 58.2 nM (input ligand: FMN 200 uM), 186 nM under setting [1] and 171 nM (input ligand: none).
“GCUCGACGUGUUGUCUACAUGAGGAUCACCCAUGUAGGUGCGGAGGAUAUCUACGUGCUUUAUGUAGAGAAGGUCGUGUCGAGC [SameState NG3 #87] (Eterna round: R96, puzzle: Same State NG 3)”: the “apparent KD of MS2 coat protein” value (input ligand: FMN 200 uM) came to 32.4 nM, the “apparent KD of MS2 coat protein” value under setting [1] was found to be 55.3 nM and the “apparent KD of MS2 coat protein” value (input ligand: none) came to 66.4 nM.
For “GCUCGAUGAAUGUCCUACAUGAGGAUCACCCAUGUUCGUGGGCAGGAUAUUUACAUGCAGAGUGUAGAGAAGGGCCCAUCGAGC [SameState NG3 #63] (Eterna round: R96, puzzle: Same State NG 3)”, in that order: 43.4 nM, 63.7 nM and 85.1 nM.
Take “GCUCGAUGUGCUGUUUACAUGAGGAUCACCCAUGUAGAUGCGGAGGAUAUCUACGUGCUUUAUGUAGAGAAGGCCGUAUCGAGC [SameState NG3 #82] (Eterna round: R96, puzzle: Same State NG 3)”: the “apparent KD of MS2 coat protein” value was 15 nM (input ligand: FMN 200 uM), 25.4 nM under setting [1] and 35.1 nM (input ligand: none).
For “GCUCGCACGAUGACCCACAUGAGGAUCACCCAUGUGCUUGGGCAGGAUAUCUAGAUUAAGGAUGUAGAGAAGGGUCGAGCGAGC [SameState NG3 #28] (Eterna round: R96, puzzle: Same State NG 3)”, in that order: 303 nM, 69.6 nM and 243 nM.
For “GCUCGGCUGAUGGCCUACAUGAGGAUCACCCAUGUGAGUGGGCAGGAUAUCUAGAUUAAGGAUGUAGAGAAGGGCCUGCCGAGC [SameState NG3 #37] (Eterna round: R96, puzzle: Same State NG 3)”, in that order: 708 nM, 131 nM and 496 nM.
